Reference: patent US20120282177A1 (published 2012)

biological target: T1, Tyrosine-protein kinase transmembrane receptor ROR1 (Long Isoform), human, on the cell surface (human, UniProt Q01973 30-937); experiment: flow cytometry on A549 cells (FIG. 5a)
T1 construct: Endogenous ROR1 on the human cell lines A549, HT29, H69 and HEK293 and on CLL cells from a patient; also called cell-surface human ROR1; full-length ROR1
Method: (§1) The specificity of antibodies against the ROR1 selected in Example 6 was tested by flow cytometry. To test the ability of the antibodies to bind to the cell surface ROR1 protein, the antibodies were incubated with the ROR1-expressing cells, A549, from human lung adenocarinoma. Cells were washed in FACS buffer (DPBS, 2% FBS), centrifuged and resuspended in 100 μl of the diluted primary ROR1 antibody (also diluted in FACS buffer). The antibody-A549 complex was incubated on ice for 60 min and then washed twice with FACS buffer as described above. The cell-antibody pellet was resuspended in 100 μl of the diluted secondary antibody (also diluted in FACS buffer) and incubated on ice for 60 min on ice. The pellet was washed as before and resuspended in 200 μl FACS buffer. The samples were loaded onto the BD FACScanto II flow sytometer and the data analyzed using the BD FACSdiva software. The binding of ROR1_A3, ROR1_A1, ROR1_A8 and ROR1_A14 to ROR1 expressed on A549, H69 (human small cell lung carcinoma) and HT29 (colon carcinoma) cells were also analysed using flow cytometry.

T1 sequence (Q01973 30-937 limits assumed): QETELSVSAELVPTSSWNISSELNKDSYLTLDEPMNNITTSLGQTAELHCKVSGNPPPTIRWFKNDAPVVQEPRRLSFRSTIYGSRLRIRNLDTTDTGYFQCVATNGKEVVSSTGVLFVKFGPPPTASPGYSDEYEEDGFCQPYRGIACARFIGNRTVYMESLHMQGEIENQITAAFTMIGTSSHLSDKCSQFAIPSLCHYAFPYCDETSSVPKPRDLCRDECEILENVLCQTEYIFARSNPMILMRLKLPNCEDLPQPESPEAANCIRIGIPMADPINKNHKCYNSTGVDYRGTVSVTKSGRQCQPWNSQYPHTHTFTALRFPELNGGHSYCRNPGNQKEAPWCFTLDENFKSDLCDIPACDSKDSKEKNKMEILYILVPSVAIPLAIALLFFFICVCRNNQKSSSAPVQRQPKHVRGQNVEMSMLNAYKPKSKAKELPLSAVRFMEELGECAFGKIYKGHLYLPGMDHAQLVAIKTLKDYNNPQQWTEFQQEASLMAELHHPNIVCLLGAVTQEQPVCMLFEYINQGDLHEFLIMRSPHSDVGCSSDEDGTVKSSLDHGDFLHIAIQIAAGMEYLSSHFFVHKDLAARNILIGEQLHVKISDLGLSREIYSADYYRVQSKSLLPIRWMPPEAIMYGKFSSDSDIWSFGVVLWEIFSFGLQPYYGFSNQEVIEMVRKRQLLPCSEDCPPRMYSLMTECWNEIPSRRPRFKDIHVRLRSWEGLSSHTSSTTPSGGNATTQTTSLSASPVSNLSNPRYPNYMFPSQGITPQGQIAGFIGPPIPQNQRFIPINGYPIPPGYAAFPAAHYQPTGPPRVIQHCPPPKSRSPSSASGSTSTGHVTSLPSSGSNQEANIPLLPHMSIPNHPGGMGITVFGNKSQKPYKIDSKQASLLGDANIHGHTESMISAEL

Binder	binding result
ROR1_A6 (Fab, V domains shown, The entries are called 'variable region' but as printed hold leader, V domain, constant domain and tag) VH: EVMLVESGGGLVKPGGSLKLSCAASGFTFSPYAMSWVRQTPEKRLEWVAAINSNRGTTYYPDTVKGRFTISRDNAKNTLYLQMSSLRSEDTAFYYCVRHRYNNYDYAMDYWGQGTSVTVSS VL: DIVMSQSPSSMYASLGERVTITCKASQDINSYLSWFQQKPGKSPKTLTYRANRLVEGVPSRFSGSGSGQDYSLTISSLEYEDMGIYYCLQYDEFPYTFGGGTKLEIKR	binds
ROR1_A2 (Fab, V domains shown, The entries are called 'variable region' but as printed hold leader, V domain, constant domain and tag) VH: EVQLLETGGGLVKPGGSLKLSCAASGFTFSTYAMSWVRQTPEKRLEWVAGINSNRGTTYYPDTVKGRFTISRDNAKNTLSLQMTSLRSEDTALYYCVRHRYTNYDYAMDYWGQGTSVTVSS VL: DIKMTQSPSSMYASLGERVTITCKASQDINSYLSWFQQKPGKSPKTLIYRANRLVDGVPSRFSGSGSGQDYSLTISSLEYEDMGIYYCLQYDEFPYTFGGGTKLEIKR	binds
ROR1_A3 (Fab, V domains shown, The entries are called 'variable region' but as printed hold leader, V domain, constant domain and tag) VH: DVMLVESGGGLVKPGGSLKLSCAASGFTFSSYAMSWVRQTPEKRLEWVAAININRGTTYYSDTVKGRFTISRDNAKNTLYLQLSSLRSEDTALYYCSRHRYSDYDYAMDYWGQGTSVTVSS VL: DIQLTQSPSSMYASLGERVTIACKASQDINSYLSWFQQKPGKSPKTLIHRANRLVDGVPSRFSGSGSGQDYSLTISSLEYEDIGIYYCLQYDEFPYTFGGGTKLEIKR	binds
ROR1_A4 (Fab, V domains shown, The entries are called 'variable region' but as printed hold leader, V domain, constant domain and tag) VH: EVKLVESGGGLVKPGGSLKLSCAASGFTFSNYGMSWVRQTPERRLEWVAAMNNNGASTYYPDTVKGRFTISRDNAKNTLYLQMSSLRSEDTALYFCVRHNNYVDYAMDYWGQGTSVTVSS VL: DILLTQSPSSMYTSLGERVTITCKASQDINSYLSWFQQKPGKSPKTLIYRANKLVDGVPSRFSGSGSGQDYSLTISSLESEDMGIYYCLQYDEFPYTFGGGTKLEIKR	binds
ROR1_A5 (Fab, V domains shown, The entries are called 'variable region' but as printed hold leader, V domain, constant domain and tag) VH: EVKLVESGGGLVKPGGSLKLSCAASGFTFSNYDMSWVRQSPEKRLEWVAAINRKGHSTYYPDTVQGRFTISRDNAKNTLYLQMSSLRSEDTALYYCVRLDDNYYFFDYWGQGTTLTVSS VL: DIKMTQSPSSMYASLGERVTITCKASQDINSYLSWFQQKPGKSPKTLIYRAKRLIDGVPSRFSGSGSGQDYSLTISSLEYEDMGIYYCLQYDEFPYTFGGGTKLEIKR	binds
ROR1_A7 (Fab, V domains shown, The entries are called 'variable region' but as printed hold leader, V domain, constant domain and tag) VH: EVMLVESGGGLVKPGGSLKISCAASGFSFSSYAMSWVRQTPEKSLEWVAAININRGTPYYPDTVKGRFTISRDNAKNTLYLQMSSLRSEDTALYYCVRHRNSNNDYAMDYWGQGTSVTVSS VL: DIVMTQSPSSMYTSLGERVTITCKASQDINSYLSWFQQKPGKSPKTLIYRANRLIDGVPSRFSGSGSGQDYSLTISSLEYEDMGIYYCLQYDEFPFTFGSGTKLEIKR	binds
ROR1_A9 (Fab, V domains shown, The entries are called 'variable region' but as printed hold leader, V domain, constant domain and tag) VH: EVQLVETGGDLVKPGGSLKLSCVASGFTFSSNAMSWVRQTPEKRLEWVAAINSKGGGTYYPDTVRGRFTISRDNAKNTLYLQVTSLRSEDTALYYCVSHGDNKYFYAMDYWGQGTSVTVSS VL: NIVMTQSPSSMYASLGERVTITCKASQDINSYLSWFQQKPGKSPKTLIYRANRLVDGVPSRFSGSGSGQDYSLTISSLEYEDMGIYYCLQYDEFPYTFGGGTKLEIKR	binds

biological target: T1, Tyrosine-protein kinase transmembrane …; experiment: flow cytometry, legend of FIGS. 5a and 5b (members and cell lines per antibody named in paragraph 474)
Method: as §1

Binder	binding result
ROR1_A1 (Fab, V domains shown) VH: EVKLVESGGGLVRPGGSLKLSCAVSGFTFSSYAMSWVRQTPEKRLEWVAAINFNRGTTYYSDTVKGRFTISRDNAKNTLYLQLSSLRSEDTAFYYCSRHRYSDYDYAMDYWGQGTSVTVSS VL: DIVMSQSPSSMYASLGERVTITCKASQDINSYLNWFQQKPGKSPKTLIYRANRLVDGVPSRFSGSGSGHDYFLTIRSLEYEDMGIYYCLQYDEFPYTFGGGTKLEIKR	binds
ROR1_A10 (Fab, V domains shown, The entries are called 'variable region' but as printed hold leader, V domain, constant domain and tag) VH: EVQLVETGGGLVKPGGSLKLSCAASGFAFSSYAMSWVRQTPEKRLEWVAAINNRGGGTYYPDTVRGRFTISRDNAKNTLYLQMSSLRSADTALYYCVRHDNLNYDYAMDSWGQGTSVTVSS VL: NIVMTQSPSSMYASLGERVTITCKASQDIYSYLSWFQQKPGKSPKTLIYRANRLVDGVPSRFSGSGSGQDYSLTISSLDYEDVGIYYCLQYDEFPYTFGSGTKLEIER	binds
ROR1_A12 (Fab, V domains shown, The entries are called 'variable region' but as printed hold leader, V domain, constant domain and tag) VH: EVQLVESGGGLVKPGGSLKLSCAASGFTFSSYAMSWVRQTPEKRLEWVAAINSNRGTTYYSDTVKGRFTISRDNAKNTLYLQMSSLRSEDTAFYYCTRHRYSDYDYAMDYWGQGTSVTVSS VL: DIKMTQSPSSMYASLGERVTITCKASQDINSYLSWFQQKPGKSPMTLTHRANRLVDGVPSRFSGSGSGQDYSLTISSLENEDMGIYYCLQYDEFPYTFGGGTKLEIKR	binds
ROR1_A13 (Fab, V domains shown, The entries are called 'variable region' but as printed hold leader, V domain, constant domain and tag) VH: EVQLVETGGGLVKPGGSLKLSCAASGFTFSSYAMSWIRQTPEKRLEWVAGINSNRGTTYYPDTVKGRFTISRDNAKNTLYLQMNSLRSEDSALYYCVRHRYIDYDYAMDYWGQGTSVTVSS VL: NIVMTQSPSSMYASLGERVTIICKSSQDINSYLSWFQQKPGKSPKTLIFRANRLVDGVPSRFSGSGSGQDYSLTISSLEYEDMGIYYCLQYDEFPYTFGGGTKLEVKR	binds
ROR1_A14 (Fab, V domains shown, The entries are called 'variable region' but as printed hold leader, V domain, constant domain and tag) VH: QVQLKQSGAELVKPGASVKISCKATGYTFSSYWIEWVKERPGHGLEWIGEILPGIGNTNYNEKFKGKATFTADLSSKTAYMQLSSLTSEDSAVYYCASGGYSTVYWYFDVWGAGTTVTVSS VL: DVVMSQSPSSLAVSTGEKVTLSCKSSQSLLNSRTRKNYLAWYQQKPGQSPKLLIYWTSTRESGVPNRFTGSGSGTDFTLTISSVQAEDLAVYYCKQSYDLPWTFGGGTKLEIKR	binds
